# In patent US20240400675A1 (published 2024):
# T1: human CLDN9 (human, UniProt O95484 1-217)
# T1 construct: also called CLND9
# T1 sequence: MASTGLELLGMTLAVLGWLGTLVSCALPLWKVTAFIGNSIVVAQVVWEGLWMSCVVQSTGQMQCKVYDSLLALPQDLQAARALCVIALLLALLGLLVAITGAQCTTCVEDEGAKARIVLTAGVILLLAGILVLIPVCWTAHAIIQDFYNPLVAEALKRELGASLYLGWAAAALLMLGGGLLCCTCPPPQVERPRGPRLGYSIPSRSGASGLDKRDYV
# T2: human CLDN6 (human, UniProt P56747 1-220)
# T2 construct: also called Claudin 6
# T2 sequence: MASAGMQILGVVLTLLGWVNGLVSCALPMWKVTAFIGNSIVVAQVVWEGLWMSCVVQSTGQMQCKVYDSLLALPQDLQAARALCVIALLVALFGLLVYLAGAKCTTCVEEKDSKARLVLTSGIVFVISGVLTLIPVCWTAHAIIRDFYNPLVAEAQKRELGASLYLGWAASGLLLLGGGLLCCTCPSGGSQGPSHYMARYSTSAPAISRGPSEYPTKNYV
# T3: human CLDN8 (human, UniProt P56748 1-225)
# T3 construct: whole, on cells
# T3 sequence (looked up): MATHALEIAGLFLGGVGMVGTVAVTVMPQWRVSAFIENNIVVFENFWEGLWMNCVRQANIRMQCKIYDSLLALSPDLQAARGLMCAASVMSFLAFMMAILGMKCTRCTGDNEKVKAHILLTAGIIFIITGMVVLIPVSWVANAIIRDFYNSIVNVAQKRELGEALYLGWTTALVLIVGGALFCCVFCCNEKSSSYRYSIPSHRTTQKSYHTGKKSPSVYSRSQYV
# T4: human CLDN17 (human, UniProt P56750 1-224)
# T4 construct: whole, on cells
# T4 sequence (looked up): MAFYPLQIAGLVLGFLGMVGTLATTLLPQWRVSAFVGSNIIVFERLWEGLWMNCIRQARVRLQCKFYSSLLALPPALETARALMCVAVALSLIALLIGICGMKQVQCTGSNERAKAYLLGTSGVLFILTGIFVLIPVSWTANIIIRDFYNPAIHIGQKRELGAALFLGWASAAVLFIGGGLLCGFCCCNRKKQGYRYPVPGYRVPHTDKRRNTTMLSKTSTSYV
# Experiments:
# human CLDN9 = target: T1, human CLDN9; experiment: flow cytometry on HEK293E cells expressing CLDN9
# Method: (§1) The following experiments used to screen CLDN6 binding domains were generally performed as follows. HEK293T or HEK293E cells were respectively stably or transiently transfected to express CLDN6, CLND9, or other targets of interest. 48 hours post transfection, cells were harvested and incubated with dilutions of the indicated test articles for 1 hour at 4° C. […] Binding was then assessed via flow cytometry.
# human CLDN6 [1] = target: T2, human CLDN6; experiment: flow cytometry on HEK293E cells expressing CLDN6 or CLDN9; EC50 on CLDN9 cells divided by EC50 on CLDN6 cells
# Method: as §1
# human CLDN6 [2] = target: T2, human CLDN6; experiment: flow cytometry on PA-1 cells engineered to a range of CLDN6 densities
# Description: PA-1 cells were engineered to stably express a range of CLDN6 antigen densities. […] Cells were washed, stained with a secondary antibody, and washed again prior to being analyzed using flow cytometry.
# Cell lines were then washed, stained with secondary antibody, and washed again before measuring binding by flow cytometry.
# human CLDN8 = target: T3, human CLDN8; experiment: flow cytometry on transiently transfected 293 cells, 100 ug/ml
# Method: (§2) 293 cells were transiently transfected to express CLDN3, CLDN4, CLDN8, or CLDN17. Cells were plated and each test article was added to each cell line at a 100 μg/ml dose. After 1 hour incubation at 4° C., cells were washed and a secondary AF647 antibody was added. Cells were incubated at 4° C. for another hour, followed by additional washing and then analysis by flow cytometry.
# as §2, with “with” for “to express”, “cytometry. […] This highlights the potential of CLDN6 binding domains having specificity for binding not only CLDN6 but also other claudin family members.” for “cytometry.”
# human CLDN17 = target: T4, human CLDN17; experiment: as above
# Method: as §2
# as §2, with “with” for “to express”, “cytometry. […] This highlights the potential of CLDN6 binding domains having specificity for binding not only CLDN6 but also other claudin family members.” for “cytometry.”
binder,measurement,setting,value
"XENP36956 (antibody, V domains shown, Bivalent mAb, C6-30 combination variant; also called XENP36956 having H1.22_L1.87; XENP36956 having H1.22_L1.187; copies: 2 + 2) VH: QVQLVQSGAEVKKPGASVKVSCKTSGYTFTEYTMHWVRQAPGQSLEWMGGIDPNNGNTHYNQKFQGRVTITVDKSASTAYMELSSLRSEDTAVYYCARILYFGRLYFDFWGAGTLVTVSS VL: DIQMTQSPSSLSASVGDRVTITCQASEDIYNRLAWYQQKPGKVPKLLISGATSLETGVPSRFSGSGSGKDYTFTISSLQPEDIATYYCQQYWSAPLTFGGGTKVEIKR",EC50,human CLDN9,29.6 µg/mL
same,CLDN9/CLDN6 EC50 ratio,human CLDN6 [1],44.9
"XENP37541 (Xtend analog to XENP37227) (bispecific antibody, 2+1 Fab2-scFv-Fc, C6-30_H1.9_L1.187, CD3 High-Int #1, with Xtend Fc (M428L/N434S); copies: 1 + 1 + 2) heavy 1: QVQLVQSGAEVKKPGASVKVSCKTSGYTFTEYTMHWVRQAPGQSLEWMGGIDPNNANTHYNQKFQGRVTITVDKSASTAYMELSSLRSEDTAVYYCARIYYFGRLYFDFWGAGTLVTVSSASTKGPSVFPLAPSSKSTSGGTAALGCLVKDYFPEPVTVSWNSGALTSGVHTFPAVLQSSGLYSLSSVVTVPSSSLGTQTYICNVNHKPSDTKVDKKVEPKSCDKTHTCPPCPAPPVAGPSVFLFPPKPKDTLMISRTPEVTCVVVDVKHEDPEVKFNWYVDGVEVHNAKTKPREEEYNSTYRVVSVLTVLHQDWLNGKEYKCKVSNKALPAPIEKTISKAKGQPREPQVYTLPPSREEMTKNQVSLTCDVSGFYPSDIAVEWESDGQPENNYKTTPPVLDSDGSFFLYSKLTVDKSRWEQGDVFSCSVLHEALHSHYTQKSLSLSPGK heavy 2: QVQLVQSGAEVKKPGASVKVSCKTSGYTFTEYTMHWVRQAPGQSLEWMGGIDPNNANTHYNQKFQGRVTITVDKSASTAYMELSSLRSEDTAVYYCARIYYFGRLYFDFWGAGTLVTVSSASTKGPSVFPLAPSSKSTSGGTAALGCLVKDYFPEPVTVSWNSGALTSGVHTFPAVLQSSGLYSLSSVVTVPSSSLGTQTYICNVNHKPSNTKVDKKVEPKSCGGGGSGGGGSQAVVTQEPSLTVSPGGTVTLTCGSSTGAVTTSNYANWVQQKPGKSPRGLIGGTNKRAPGVPARFSGSLLGGKAALTISGAQPEDEADYYCALWYSNHWVFGGGTKLTVLGKPGSGKPGSGKPGSGKPGSEVQLVESGGGLVQPGGSLRLSCAASGFTFSTYAMNWVRQAPGKGLEWVGRIRSKANNYATYYADSVKGRFTISRDDSKNTLYLQMNSLRAEDTAVYYCVRHGNFGDSYVSWFAYWGQGTLVTVSSGGGGSGGGGSKTHTCPPCPAPPVAGPSVFLFPPKPKDTLMISRTPEVTCVVVDVKHEDPEVKFNWYVDGVEVHNAKTKPREEQYNSTYRVVSVLTVLHQDWLNGKEYKCKVSNKALPAPIEKTISKAKGQPREPQVYTLPPSREQMTKNQVKLTCLVKGFYPSDIAVEWESNGQPENNYKTTPPVLDSDGSFFLYSKLTVDKSRWQQGNVFSCSVLHEALHSHYTQKSLSLSPGK light: not shown",binding result,human CLDN6 [2],binds
"XENP37217, CLDN6 x CD3 bispecific with comparator CLDN6 binding domain Comp_CHO02 in the 2+1 Fab2-scFv-Fc format (bispecific antibody, also called comparator molecule XENP37217) heavy 1: EVQVEQSGLELVKPGASVKISCKTSGYTFTEYTMHWVKQSHGKSLEWIGGINPNNGNTRYNQKFKDKATLTVDKSSRTAYMELHTLTSEDSAVYYCARCGDYDLFFFFAYWGQGTLVTVSAASTKGPSVFPLAPSSKSTSGGTAALGCLVKDYFPEPVTVSWNSGALTSGVHTFPAVLQSSGLYSLSSVVTVPSSSLGTQTYICNVNHKPSNTKVDKKVEPKSCGGGGSGGGGSQAVVTQEPSLTVSPGGTVTLTCGSSTGAVTTSNYANWVQQKPGKSPRGLIGGTNKRAPGVPARFSGSLLGGKAALTISGAQPEDEADYYCALWYSNHWVFGGGTKLTVLGKPGSGKPGSGKPGSGKPGSEVQLVESGGGLVQPGGSLRLSCAASGFTFSTYAMNWVRQAPGKGLEWVGRIRSKANNYATYYADSVKGRFTISRDDSKNTLYLQMNSLRAEDTAVYYCVRHGNFGDSYVSWFAYWGQGTLVTVSSGGGGSGGGGSKTHTCPPCPAPPVAGPSVFLFPPKPKDTLMISRTPEVTCVVVDVKHEDPEVKFNWYVDGVEVHNAKTKPREEQYNSTYRVVSVLTVLHQDWLNGKEYKCKVSNKALPAPIEKTISKAKGQPREPQVYTLPPSREQMTKNQVKLTCLVKGFYPSDIAVEWESNGQPENNYKTTPPVLDSDGSFFLYSKLTVDKSRWQQGNVFSCSVMHEALHNHYTQKSLSLSPGK heavy 2: EVQVEQSGLELVKPGASVKISCKTSGYTFTEYTMHWVKQSHGKSLEWIGGINPNNGNTRYNQKFKDKATLTVDKSSRTAYMELHTLTSEDSAVYYCARCGDYDLFFFFAYWGQGTLVTVSAASTKGPSVFPLAPSSKSTSGGTAALGCLVKDYFPEPVTVSWNSGALTSGVHTFPAVLQSSGLYSLSSVVTVPSSSLGTQTYICNVNHKPSDTKVDKKVEPKSCDKTHTCPPCPAPPVAGPSVFLFPPKPKDTLMISRTPEVTCVVVDVKHEDPEVKFNWYVDGVEVHNAKTKPREEEYNSTYRVVSVLTVLHQDWLNGKEYKCKVSNKALPAPIEKTISKAKGQPREPQVYTLPPSREEMTKNQVSLTCDVSGFYPSDIAVEWESDGQPENNYKTTPPVLDSDGSFFLYSKLTVDKSRWEQGDVFSCSVMHEALHNHYTQKSLSLSPGK light: DIVMTQFQKFMSTSVGDRVSVTCKASQNVGTNVAWYQQKPGQSPEALISSASSRFSGVPDRFTGSGSGTDFTLTITNVQSEDLADYFCQQYNSFPFTFGSGTELEIKRTVAAPSVFIFPPSDEQLKSGTASVVCLLNNFYPREAKVQWKVDNALQSGNSQESVTEQDSKDSTYSLSSTLTLSKADYEKHKVYACEVTHQGLSSPVTKSFNRGEC",binding result,human CLDN8,binds
same,binding result,human CLDN17,binds
